The assay has as its target APP-TAP-AICD (human, UniProt P05067 18-695). The assay can be described thus: streptavidin purification of APP-TAP-AICD from brain homogenate; LTQ-FT semiquantitative method, transgenic mouse 75 vs control mouse 72.

B1: ATP synthase e chain, mitochondrial (enzyme, mouse, UniProt Q06185 2-71, looked up)
chain: VPPVQVSPLIKFGRYSALIIGMAYGAKRYSYLKPRAEEERRIAAEEKKRLDELKRIERELAEAQDDSILK
notes: also called epsilon chain
Consider B1, for which the “probability that this protein is enriched” value was found to be 0.88.

B2: Superoxide dismutase [Cu-Zn] (enzyme)
chain: not shown
For the molecule B2, the “probability that this protein is enriched” value turned out to be 1.

B3: Peroxiredoxin-5, mitochondrial precursor (Prx-V) (enzyme, mouse, UniProt P99029 49-210, looked up)
chain: MAPIKVGDAIPSVEVFEGEPGKKVNLAELFKGKKGVLFGVPGAFTPGCSKTHLPGFVEQAGALKAKGAQVVACLSVNDVFVIEEWGRAHQAEGKVRLLADPTGAFGKATDLLLDDSLVSLFGNRRLKRFSMVIDNGIVKALNVEPDGTGLTCSLAPNILSQL
notes: also called PRDX5_MOUSE
Take B3: the “probability that this protein is enriched” value amounted to 1.

B4: Neuronal membrane glycoprotein M6-b (M6b) (other, mouse, UniProt P35803 1-328, looked up)
chain: MKPAMETAAEENTEQSQERKVNSRAEMEIGRYHWMYPGSKNHQYRPVPNLGDRAGPLSSPGCFECCIKCLGGVPYASLVATILCFSGVALFCGCGHVALAGTVAILEQHFSTNTSDHALLSEVIQLMQYVIYGIASFFFLYGIILLAEGFYTTSAVKELHGEFKTTACGRCISGMFVFLTYVLGVAWLGVFGFSAVPVFMFYNIWSTCEVIKSPQSNGTSGVEQICVDVRQYGIIPWNAFPGKICGSALENICNTNEFYMSYHLFIVACAGAGATVIALIHFLMILSSNWAYLKDASKMQAYQDIKAKEEQELQDIQSRSKEQLNSYT
notes: also called Proteolipid protein PLP/dm-20
Consider B4, for which the “probability that this protein is enriched” value worked out at 0.87.

B5: 14-3-3 protein eta (other, mouse, UniProt P68510 2-246, looked up)
chain: GDREQLLQRARLAEQAERYDDMASAMKAVTELNEPLSNEDRNLLSVAYKNVVGARRSSWRVISSIEQKTMADGNEKKLEKVKAYREKIEKELETVCNDVLALLDKFLIKNCNDFQYESKVFYLKMKGDYYRYLAEVASGEKKNSVVEASEAAYKEAFEISKEHMQPTHPIRLGLALNFSVFYYEIQNAPEQACLLAKQAFDDAIAELDTLNEDSYKDSTLIMQLLRDNLTLWTSDQQDEEAGEGN
notes: also called 14-3-3 η
Consider B5, for which the “probability that this protein is enriched” value was 1.

B6: phosphoglycerate mutase 1 (enzyme, mouse, UniProt Q9DBJ1 1-254, looked up)
chain: MAAYKLVLIRHGESAWNLENRFSGWYDADLSPAGHEEAKRGGQALRDAGYEFDICFTSVQKRAIRTLWTVLDAIDQMWLPVVRTWRLNERHYGGLTGLNKAETAAKHGEAQVKIWRRSYDVPPPPMEPDHPFYSNISKDRRYADLTEDQLPSCESLKDTIARALPFWNEEIVPQIKEGKRVLIAAHGNSLRGIVKHLEGLSEEAIMELNLPTGIPIVYELDKNLKPIKPMQFLGDEETVRKAMEAVAAQGKVKK
notes: also called PGAM1_MOUSE
On to B6, for which the “probability that this protein is enriched” value came to 0.86.

B7: Sodium/potassium-transporting ATPase alpha-2 chain precursor (Sodium pump 2) (Na+/K+ ATPase 2) (Alpha(+)) (enzyme)
chain: not shown
notes: also called AT1A2_MOUSE
Consider B7, for which the “probability that this protein is enriched” value amounted to 0.88.

B8: Myosin light chain kinase 2, skeletal/cardiac muscle (MLCK2) (Fragment) (enzyme, mouse, UniProt Q8VCR8 1-613, looked up)
chain: MTTENGAVELGSQSLSTEQTPKAAAGDGPSASEKEPSAPATEKDLSPPNAKKDPGAPDPKNNPDPPSLKKDPAKAPGPEKKGDPVPASASSQGPSGEGDGGGGPAEGSEGPPAALPLPTATAEASIQKLDPTQAPSGNQGSGEAKAGKKAAECREAGRRGSPAFLHSPSCPAIISCSEKTLAVKPLSETTDLVFTGVSVTPDPQDPGPVKAGGTNALAEKKKEEAEKASGQAGQAKVQGDTPQRIGFQAVPSERVEVGQALCLTAREEDCFQILDDCPPPPAPFPHRIVELRTGNVNSEFSMNSKEALGGGKFGAVCTCTERATGLKLAAKVIKKQTPKDKEMVLLEIEVMNQLNHRNLIQLYAAIETSHEIILFMEYIEGGELFERIVDEDYHLTEVDTMVFVRQICDGILFMHKMRVLHLDLKPENILCVNTTGHLVKIIDFGLARRYNPNEKLKVNFGTPEFLSPEVVNYDQISDKTDMWSLGVITYMLLSGLSPFLGDDDTETLNNVLSANWYFDEETFEAVSDEAKDFVSNLLTKDQSARMSAEQCLAHPWLNNLAEKAKRCNRRLKSQILLKKYLMKRRWKKNFIAVSAANRFKKISSSGALMALGV
notes: also called MYLK2_MOUSE
As for B8, the “probability that this protein is enriched” value is 1.

B9: Clathrin coat assembly protein AP180 (Clathrin coat-associated protein AP180) (91 kDa synaptosomal-associated protein) (other, mouse, UniProt Q61548 1-901, looked up)
chain: MSGQTLTDRIAAAQYSVTGSAVARAVCKATTHEVMGPKKKHLDYLIQATNETNVNIPQMADTLFERATNSSWVVVFKALVTTHHLMVHGNERFIQYLASRNTLFNLSNFLDKSGSHGYDMSTFIRRYSRYLNEKAFSYRQMAFDFARVKKGADGVMRTMVPEKLLKSMPILQGQIDALLEFDVHPNELTNGVINAAFMLLFKDLIKLFACYNDGVINLLEKFFEMKKGQCKDALEIYKRFLTRMTRVSEFLKVAEQVGIDKGDIPDLTQAPSSLMETLEQHLNTLEGKKPGNNEGSGAPSPLSKSSPATTVTSPNSTPAKTIDTSPPVDIFATASAAAPVSSAKPSSDLLDLQPDFSGAAAGAAAPVVPPSGGATAWGDLLGEDSLAALSSVPCEAPISDPFAPEPSPPTTTTEPASASASTTTAVTAVTTEVDLFGDAFAASPGEAPAASEGATAPATPAPVAAALDACSGNDPFAPSEGSAEAAPELDLFAMKPPETSAPVVTPTASTAPPVPATAPSPAPTAVAATAATTTAAAAATTTATTSAAAATTAAAPPALDIFGDLFDSAPEVAAAPKPDAAPSIDLFGTDAFSSPPRGASPVPESSLTADLLSVDAFAAPSPASTASPAKAESSGVIDLFGDAFGSGASETQPAPQAVSSSSASADLLAGFGGSFMAPSTTPVTPAQNNLLQPSFEAAFGTTPSTSSSSSFDPSVFDGLGDLLMPTMAPSGQPAPVSMVPPSPAMAASKGLGSDLDSSLASLVGNLGISGTTSKKGDLQWNAGEKKLTGGANWQPKVTPATWSAGVPPQGTVPPTSSVPPGAGAPSVGQPGAGFGMPPSGTGMTMMSQQPVMFAQPMMRPPFGAAAVPGTQLSPSPTPATQSPKKPPAKDPLADLNIKDFL
notes: also called AP180_MOUSE; Clathrin coat assembly protein Aβ180
Regarding B9, the “probability that this protein is enriched” value was found to be 0.85.

B10: 14-3-3 protein theta (14-3-3 protein tau) (other, mouse, UniProt P68254 1-245, looked up)
chain: MEKTELIQKAKLAEQAERYDDMATCMKAVTEQGAELSNEERNLLSVAYKNVVGGRRSAWRVISSIEQKTDTSDKKLQLIKDYREKVESELRSICTTVLELLDKYLIANATNPESKVFYLKMKGDYFRYLAEVACGDDRKQTIENSQGAYQEAFDISKKEMQPTHPIRLGLALNFSVFYYEILNNPELACTLAKTAFDEAIAELDTLNEDSYKDSTLIMQLLRDNLTLWTSDSAGEECDAAEGAEN
notes: also called 14-3-3 θ
For the molecule B10, the “probability that this protein is enriched” value worked out at 1.

B11: Elongation factor 1-alpha 2 (EF-1-alpha-2) (Elongation factor 1 A-2) (eEF1A-2) (Statin S1) (other, mouse, UniProt P62631 2-463, looked up)
chain: GKEKTHINIVVIGHVDSGKSTTTGHLIYKCGGIDKRTIEKFEKEAAEMGKGSFKYAWVLDKLKAERERGITIDISLWKFETTKYYITIIDAPGHRDFIKNMITGTSQADCAVLIVAAGVGEFEAGISKNGQTREHALLAYTLGVKQLIVGVNKMDSTEPAYSEKRYDEIVKEVSAYIKKIGYNPATVPFVPISGWHGDNMLEPSPNMPWFKGWKVERKEGNASGVSLLEALDTILPPTRPTDKPLRLPLQDVYKIGGIGTVPVGRVETGILRPGMVVTFAPVNITTEVKSVEMHHEALSEALPGDNVGFNVKNVSVKDIRRGNVCGDSKADPPQEAAQFTSQVIILNHPGQISAGYSPVIDCHTAHIACKFAELKEKIDRRSGKKLEDNPKSLKSGDAAIVEMVPGKPMCVESFSQYPPLGRFAVRDMRQTVAVGVIKNVEKKSGGAGKVTKSAQKAQKAGK
notes: also called EF1A2_MOUSE
Consider B11, for which the “probability that this protein is enriched” value came to 1.

B12: Plasma membrane calcium-transporting ATPase 2 (PMCA2) (enzyme, mouse, UniProt Q9R0K7 1-1198, looked up)
chain: MGDMTNSDFYSKNQRNESSHGGEFGCTMEELRSLMELRGTEAVVKIKETYGDTEAICRRLKTSPVEGLPGTAPDLEKRKQIFGQNFIPPKKPKTFLQLVWEALQDVTLIILEIAAIISLGLSFYHPPGESNEGCATAQGGAEDEGEAEAGWIEGAAILLSVICVVLVTAFNDWSKEKQFRGLQSRIEQEQKFTVVRAGQVVQIPVAEIVVGDIAQIKYGDLLPADGLFIQGNDLKIDESSLTGESDQVRKSVDKDPMLLSGTHVMEGSGRMVVTAVGVNSQTGIIFTLLGAGGEEEEKKDKKAKQQDGAAAMEMQPLKSAEGGDADDKKKANMHKKEKSVLQGKLTKLAVQIGKAGLVMSAITVIILVLYFTVDTFVVNKKPWLTECTPVYVQYFVKFFIIGVTVLVVAVPEGLPLAVTISLAYSVKKMMKDNNLVRHLDACETMGNATAICSDKTGTLTTNRMTVVQAYVGDVHYKEIPDPSSINAKTLELLVNAIAINSAYTTKILPPEKEGALPRQVGNKTECGLLGFVLDLRQDYEPVRSQMPEEKLYKVYTFNSVRKSMSTVIKMPDESFRMYSKGASEIVLKKCCKILSGAGEARVFRPRDRDEMVKKVIEPMACDGLRTICVAYRDFPSSPEPDWDNENDILNELTCICVVGIEDPVRPEVPEAIRKCQRAGITVRMVTGDNINTARAIAIKCGIIHPGEDFLCLEGKEFNRRIRNEKGEIEQERIDKIWPKLRVLARSSPTDKHTLVKGIIDSTHTEQRQVVAVTGDGTNDGPALKKADVGFAMGIAGTDVAKEASDIILTDDNFSSIVKAVMWGRNVYDSISKFLQFQLTVNVVAVIVAFTGACITQDSPLKAVQMLWVNLIMDTFASLALATEPPTETLLLRKPYGRNKPLISRTMMKNILGHAVYQLTLIFTLLFVGEKMFQIDSGRNAPLHSPPSEHYTIIFNTFVMMQLFNEINARKIHGERNVFDGIFRNPIFCTIVLGTFAIQIVIVQFGGKPFSCSPLQLDQWMWCIFIGLGELVWGQVIATIPTSRLKFLKEAGRLTQKEEIPEEELNEDVEEIDHAERELRRGQILWFRGLNRIQTQIRVVKAFRSSLYEGLEKPESRTSIHNFMAHPEFRIEDSQPHIPLIDDTDLEEDAALKQNSSPPSSLNKNNSAIDSGINLTTDTSKSATSSSPGSPIHSLETSL
notes: also called AT2B2_MOUSE
With B12, the “probability that this protein is enriched” value stood at 0.86.

B13: 14-3-3 protein beta/alpha (Protein kinase C inhibitor protein 1) (KCIP-1) (other, mouse, UniProt Q9CQV8 1-246, looked up)
chain: MTMDKSELVQKAKLAEQAERYDDMAAAMKAVTEQGHELSNEERNLLSVAYKNVVGARRSSWRVISSIEQKTERNEKKQQMGKEYREKIEAELQDICNDVLELLDKYLILNATQAESKVFYLKMKGDYFRYLSEVASGENKQTTVSNSQQAYQEAFEISKKEMQPTHPIRLGLALNFSVFYYEILNSPEKACSLAKTAFDEAIAELDTLNEESYKDSTLIMQLLRDNLTLWTSENQGDEGDAGEGEN
notes: also called 14-3-3 β
Regarding B13, the “probability that this protein is enriched” value was 1.

B14: 2',3'-cyclic-nucleotide 3'-phosphodiesterase (CNPase) (enzyme, mouse, UniProt P16330 1-417, looked up)
chain: MNTSFTRKSHTFLPKLFFRKMSSSGAKEKPELQFPFLQDEDTVATLHECKTLFILRGLPGSGKSTLARLILEKYHDGTKMVSADAYKIIPGSRADFSEAYKRLDEDLAGYCRRDIRVLVLDDTNHERERLDQLFEMADQYQYQVVLVEPKTAWRLDCAQLKEKNQWQLSADDLKKLKPGLEKDFLPLYFGWFLTKKSSETLRKAGQVFLEELGNHKAFKKELRHFISGDEPKEKLELVSYFGKRPPGVLHCTTKFCDYGKAAGAEEYAQQEVVKRSYGKAFKLSISALFVTPKTAGAQVVLTDQELQLWPSDLDKPSASEGLPPGSRAHVTLGCAADVQPVQTGLDLLDILQQVKGGSQGEAVGELPRGKLYSLGKGRWMLSLTKKMEVKAIFTGYYGKGKPVPIHGSRKGGAMQIC
notes: also called CN37_MOUSE
With B14, the “probability that this protein is enriched” value came to 0.87.

(Values after patent US20100169988A1 (published 2010).)
